From patent publication US20030206925A1 (Pfizer, published 2003) come the findings set out here.

The target in the assay is T1, measles virus nucleocapsid (N) protein, Edmonston wild-type (measles virus (Edmonston wild-type), UniProt P04851 1-525).
T1 sequence (looked up): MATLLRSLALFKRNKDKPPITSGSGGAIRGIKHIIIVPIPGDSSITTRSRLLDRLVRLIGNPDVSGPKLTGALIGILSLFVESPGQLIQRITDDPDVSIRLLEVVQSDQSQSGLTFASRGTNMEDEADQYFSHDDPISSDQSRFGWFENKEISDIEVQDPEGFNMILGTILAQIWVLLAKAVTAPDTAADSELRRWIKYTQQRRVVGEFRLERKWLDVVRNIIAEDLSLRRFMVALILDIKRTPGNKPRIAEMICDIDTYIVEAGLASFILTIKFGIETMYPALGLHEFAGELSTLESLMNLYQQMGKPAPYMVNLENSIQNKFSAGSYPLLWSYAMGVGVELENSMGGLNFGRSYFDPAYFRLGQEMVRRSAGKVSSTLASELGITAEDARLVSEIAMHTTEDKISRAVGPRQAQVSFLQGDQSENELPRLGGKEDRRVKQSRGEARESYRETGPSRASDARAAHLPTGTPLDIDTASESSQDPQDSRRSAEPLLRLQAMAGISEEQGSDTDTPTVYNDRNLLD
The assay is described as follows: separate experiment, method not described, data not shown.

B1: measles virus V protein mutant haV-11 (deletion of amino acids 1-20 and 208-230) (other)
chain: MAYPYDVPDYAAEPIGSLAIEEAMAAWSEISDNPGQERATCREEKAGSSGLSKPCLSAIGSTEGGAPRIRGQGPGESDDDAETLGIPPRNLQASSTGLQCYYVYDHSGEAVKGIQDADSIMVQSGLDGDSTLSGGDNESENSDVDIGEPDTEGYAITDRGSAPISMGFRASDVETAEGGEIHELLRLQSRGNNFPKLEGHRREISLIWNGDRVFIDRWCNPMCSKVTLGTIRARCTCGECPRVCEQCRTDTGVDTRIWYHNLPEIPE
notes: Made in the pMV-haV-wt backbone by deletion mutagenesis
In the case of B1, the binding result is “no binding”.

B2: measles virus V protein mutant haV-9 (deletion of amino acids 1-20) (other)
chain: MAYPYDVPDYAAEPIGSLAIEEAMAAWSEISDNPGQERATCREEKAGSSGLSKPCLSAIGSTEGGAPRIRGQGPGESDDDAETLGIPPRNLQASSTGLQCYYVYDHSGEAVKGIQDADSIMVQSGLDGDSTLSGGDNESENSDVDIGEPDTEGYAITDRGSAPISMGFRASDVETAEGGEIHELLRLQSRGNNFPKLEKTLNVPPPPDPGRASTSETPIKKGHRREISLIWNGDRVFIDRWCNPMCSKVTLGTIRARCTCGECPRVCEQCRTDTGVDTRIWYHNLPEIPE
notes: as for B1
For B2, the binding result is on record as “no binding”.
